Columns and labels:
DC-SIGN-Fc [1] = target: T1, DC-SIGN-Fc (Homo sapiens, UniProt Q9NNX6); assay: Soluble DC-SIGN-Fc adhesion assay (Fc ELISA); settings: ELISA, ligand coated
T1 sequence (Q9NNX6 64-404): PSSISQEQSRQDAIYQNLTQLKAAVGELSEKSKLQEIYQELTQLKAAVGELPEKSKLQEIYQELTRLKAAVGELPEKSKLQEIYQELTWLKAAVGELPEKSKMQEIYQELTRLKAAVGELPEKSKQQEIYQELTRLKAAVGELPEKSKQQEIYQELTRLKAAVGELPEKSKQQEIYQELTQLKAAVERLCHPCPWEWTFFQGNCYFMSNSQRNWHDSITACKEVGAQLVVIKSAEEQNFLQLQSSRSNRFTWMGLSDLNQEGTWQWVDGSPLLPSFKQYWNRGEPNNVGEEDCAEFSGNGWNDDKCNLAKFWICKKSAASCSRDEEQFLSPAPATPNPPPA

[2] = target: T2, DC-SIGN on immature monocyte derived DC (Homo sapiens, UniProt Q9NNX6); assay: Fluorescent bead adhesion assay, immature DC; type: cell-based
T2 construct: Immature DC were cultured from monocytes in the presence of IL-4 and GM-CSF; endogenous in cells; host or cells: immature monocyte-derived dendritic cells
T2 sequence (Q9NNX6 1-404): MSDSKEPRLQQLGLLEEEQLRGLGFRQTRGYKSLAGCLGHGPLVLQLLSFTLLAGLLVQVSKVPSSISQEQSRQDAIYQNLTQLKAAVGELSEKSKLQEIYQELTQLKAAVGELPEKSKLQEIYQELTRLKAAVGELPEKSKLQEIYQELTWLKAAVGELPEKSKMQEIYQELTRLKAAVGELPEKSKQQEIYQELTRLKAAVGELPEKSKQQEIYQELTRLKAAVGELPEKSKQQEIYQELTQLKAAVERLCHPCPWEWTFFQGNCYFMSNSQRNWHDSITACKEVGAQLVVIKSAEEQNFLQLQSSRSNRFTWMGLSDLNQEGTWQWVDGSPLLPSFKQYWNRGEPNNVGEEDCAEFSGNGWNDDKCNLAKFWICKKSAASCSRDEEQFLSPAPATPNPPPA

[3] = target: T3, DC-SIGN expressed by K562 transfectants (Homo sapiens, UniProt Q9NNX6); type: cell-based
T3 construct: expressed in transfected cells; host or cells: K562
T3 sequence (Q9NNX6 1-404): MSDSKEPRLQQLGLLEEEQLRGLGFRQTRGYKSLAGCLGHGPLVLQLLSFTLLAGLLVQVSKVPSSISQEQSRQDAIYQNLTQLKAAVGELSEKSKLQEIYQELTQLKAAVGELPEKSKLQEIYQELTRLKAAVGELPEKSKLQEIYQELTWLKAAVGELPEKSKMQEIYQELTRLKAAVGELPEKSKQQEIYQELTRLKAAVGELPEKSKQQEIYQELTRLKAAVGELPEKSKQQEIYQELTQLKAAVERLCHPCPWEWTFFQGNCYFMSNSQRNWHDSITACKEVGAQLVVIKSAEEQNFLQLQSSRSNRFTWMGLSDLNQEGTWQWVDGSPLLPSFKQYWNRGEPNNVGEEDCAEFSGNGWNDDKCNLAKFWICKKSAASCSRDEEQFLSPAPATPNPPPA

DC-SIGN-Fc [4] = target: T1, DC-SIGN-Fc; assay: Immunoprecipitation and detection with DC-SIGN-Fc; type: binding
From the text: FIG. 59. […] Cell-surface proteins are biotinylated and PMNs are lysed. Lane 1. negative control using ICAM-3 Fc to capture by IP proteins. Detection is peroxidase-labeled streptavidin. Lane 2. DC-SIGN-Fc is used to capture ligands biotinylated ligands from lysate; two protein bands are visible, the upper band consists of CD11b and CD66a, whereas the lower consists of CD18. Lane 3. Negative control; no bands are immune precipitated with anti-DC-SIGN antibodies. Lane 4, IP with antibodies against CD66acd; a faint band is visible containing CD66a. Lane 5, IP of CD11b; two bands are visible; the upper band is […] and the lower band is CD18m, which is co-immuneprecipitated with […]. Lane 6. IP with DC-SIGN ligands and detection with anti-CD66acd; CD66a is captured by DC-SIGN Fc. Lane 7. IP with DC-SIGN ligands and detection with anti-CD11b; CD11b is captured by DC-SIGN Fc. Lane 8. Negative control, IP with anti-DC-SIGN antibodies and detection with DC-SIGN-Fc. Lane 9. IP with anti-CD66acd and detection with DC-SIGN Fc; CD66a is bound by DC-SIGN on blot. Lane 10. IP with anti-CD11a and detection with DC-SIGN Fc; CD11a is bound by DC-SIGN on blot.
Immunoprecipitation. […]

B1: ICAM-3: cellular ligand of DC-SIGN (protein)
chain: QEFLLRVEPQNPVLSAGGSLFVNCSTDCPSSEKIALETSLSKELVASGMGWAAFNLSNVTGNSRILCSVYCNGSQITGSSNITVYRLPERVELAPLPPWQPVGQNFTLRCQVEDGSPRTSLTVVLLRWEEELSRQPAVEEPAEVTATVLASRDDHGAPFSCRTELDMQPQGLGLFVNTSAPRQLRTFVLPVTPPRLVAPRFLEVETSWPVDCTLDGLFPASEAQVYLALGDQMLNATVMNHGDTLTATATATARADQEGAREIVCNVTLGGERREARENLTVFSFLGPIVNLSEPTAHEGSTVTVSCMAGARVQVTLDGVPAAAPGQPAQLQLNATESDDGRSFFCSATLEVDGEFLHRNSSVQLRVLYGPKIDRATCPQHLKWKDKTRHVLQCQARGNPYPELRCLKEGSSREVPVGIPFFVNVTHNGTYQCQASSSRGKYTLVVVMDIEAGSSH
DC-SIGN-Fc [1]
  binding of DC-SIGN-Fc to coated ligand: does not recognize

B2: CEACAM1: native CEACAM1 (CD66) from PMN (protein, UniProt P13688 35-526, looked up)
Cell adhesion molecule CEACAM1: QLTTESMPFNVAEGKEVLLLVHNLPQQLFGYSWYKGERVDGNRQIVGYAIGTQQATPGPANSGRETIYPNASLLIQNVTQNDTGFYTLQVIKSDLVNEEATGQFHVYPELPKPSISSNNSNPVEDKDAVAFTCEPETQDTTYLWWINNQSLPVSPRLQLSNGNRTLTLLSVTRNDTGPYECEIQNPVSANRSDPVTLNVTYGPDTPTISPSDTYYRPGANLSLSCYAASNPPAQYSWLINGTFQQSTQELFIPNITVNNSGSYTCHANNSVTGCNRTTVKTIIVTELSPVVAKPQIKASKTTVTGDKDSVNLTCSTNDTGISIRWFFKNQSLPSSERMKLSQGNTTLSINPVKREDAGTYWCEVFNPISKNQSDPIMLNVNYNALPQENGLSPGAIAGIVIGVVALVALIAVALACFLHFGKTGRASDQRDLTEHKPSVSNHTQDHSNDPPNKMNEVTYSTLNFEAQQPTQPTSASPSLTATEIIYSEVKKQ
[2]
  binding of ligand-coated beads to immature DC: binds
[3]
  binding of ligand-coated beads to K562 DC-SIGN transfectants: binds
DC-SIGN-Fc [1]
  binding of DC-SIGN-Fc to coated ligand: is a ligand of DC-SIGN

B3: CD66e: tumor antigen CEA from SW948 tumor cell lysate (protein, UniProt P06731 35-685, looked up)
Cell adhesion molecule CEACAM5: KLTIESTPFNVAEGKEVLLLVHNLPQHLFGYSWYKGERVDGNRQIIGYVIGTQQATPGPAYSGREIIYPNASLLIQNIIQNDTGFYTLHVIKSDLVNEEATGQFRVYPELPKPSISSNNSKPVEDKDAVAFTCEPETQDATYLWWVNNQSLPVSPRLQLSNGNRTLTLFNVTRNDTASYKCETQNPVSARRSDSVILNVLYGPDAPTISPLNTSYRSGENLNLSCHAASNPPAQYSWFVNGTFQQSTQELFIPNITVNNSGSYTCQAHNSDTGLNRTTVTTITVYAEPPKPFITSNNSNPVEDEDAVALTCEPEIQNTTYLWWVNNQSLPVSPRLQLSNDNRTLTLLSVTRNDVGPYECGIQNELSVDHSDPVILNVLYGPDDPTISPSYTYYRPGVNLSLSCHAASNPPAQYSWLIDGNIQQHTQELFISNITEKNSGLYTCQANNSASGHSRTTVKTITVSAELPKPSISSNNSKPVEDKDAVAFTCEPEAQNTTYLWWVNGQSLPVSPRLQLSNGNRTLTLFNVTRNDARAYVCGIQNSVSANRSDPVTLDVLYGPDTPIISPPDSSYLSGANLNLSCHSASNPSPQYSWRINGIPQQHTQVLFIAKITPNNNGTYACFVSNLATGRNNSIVKSITVSASGTSPGLSA
DC-SIGN-Fc [4]
  binding of DC-SIGN-Fc to immunoprecipitated ligand: binds
DC-SIGN-Fc [4]; immunoprecipitation
  binding of DC-SIGN-Fc after α-1,3,4 Fucosidase treatment of the ligand: abrogated
DC-SIGN-Fc [1]
  binding of DC-SIGN-Fc to coated ligand: bound

B4: RNAseB: control inhibitor in DC adhesion assay (protein, UniProt P61823 27-150, looked up)
Ribonuclease pancreatic: KETAAAKFERQHMDSSTSAASSSNYCNQMMKSRNLTKDRCKPVNTFVHESLADVQAVCSQKNVACKNGQTNCYQSYSTMSITDCRETGSSKYPNCAYKTTQANKHIIVACEGNPYVPVHFDASV
modifications: glycoform B
[2]
  inhibition of HIV-1 gp120 adhesion to DC: does not block
[2]; inhibitors 20 μg/ml
  inhibition of ICAM-3 adhesion to DC: does not block

Reference: patent publication US8309097B2, “C-type lectin binding molecules, identification and uses thereof” (Vereniging voor Christelijk Wetenschappelijk Onderwijs, priority 2002, dated 2012)
